Tests used:
[1] = target: Aβ1-42 peptide, high molecular weight (HMW) proto-fibrillar (PF) oligomer enriched preparation (human); assay: ELISA on coated fraction, Ab 1 µg/ml
[2] = target: Aβ1-42 peptide, low molecular weight (LMW) monomer preparation (human); assay: ELISA on coated fraction, Ab 1 µg/ml
[3] = target: Aβ1-42 peptide, monomer-enriched preparation; assay: ELISA assay 2, Ab 1:16 of 0.5 µg/ml
[4] = target: Aβ1-42 peptide, oligomer-enriched preparation; assay: ELISA assay 2, Ab 1:16 of 0.5 µg/ml
[5] = target: Aβ1-42 peptide, high molecular weight (HMW) proto-fibrillar (PF) oligomer enriched preparation (human); assay: ELISA on coated fraction, Ab 0.125 µg/ml
[6] = target: Aβ1-42 peptide, low molecular weight (LMW) monomer preparation (human); assay: ELISA on coated fraction, Ab 0.125 µg/ml
[7] = target: Aβ1-42 peptide, high molecular weight (HMW) proto-fibrillar (PF) oligomer enriched preparation (human); assay: ELISA, Ab 0.0156 µg/ml; proto-fibrils against LMW monomers (given without sign)
[8] = target: Aβ1-42 peptide, monomer-enriched preparation; assay: ELISA assay 2, Ab 1:1 of 0.5 µg/ml
[9] = target: Aβ1-42 peptide, oligomer-enriched preparation; assay: ELISA assay 2, Ab 1:1 of 0.5 µg/ml
[10] = target: Aβ1-42 peptide, monomer-enriched preparation; assay: ELISA assay 3, Ab 1:2 of 0.5 µg/ml
[11] = target: Aβ1-42 peptide, oligomer-enriched preparation; assay: ELISA assay 3, Ab 1:2 of 0.5 µg/ml
[12] = target: Aβ1-42 peptide, high molecular weight (HMW) proto-fibrillar (PF) oligomer enriched preparation (human); assay: ELISA, Ab 0.25 µg/ml; proto-fibrils against LMW monomers (given without sign)
[13] = target: Aβ1-42 peptide, monomer-enriched preparation; assay: ELISA mean of 3, Ab 1:128 of 0.5 µg/ml
[14] = target: Aβ1-42 peptide, oligomer-enriched preparation; assay: ELISA mean of 3, Ab 1:128 of 0.5 µg/ml
[15] = target: Aβ1-42 peptide, monomer-enriched preparation; assay: ELISA mean of 3, Ab 1:64 of 0.5 µg/ml
[16] = target: Aβ1-42 peptide, oligomer-enriched preparation; assay: ELISA mean of 3, Ab 1:64 of 0.5 µg/ml
[17] = target: Aβ1-42 peptide, monomer-enriched preparation; assay: ELISA mean of 3, Ab 1:4 of 0.5 µg/ml
[18] = target: Aβ1-42 peptide, oligomer-enriched preparation; assay: ELISA mean of 3, Ab 1:4 of 0.5 µg/ml
[19] = target: Aβ1-42 peptide, monomer-enriched preparation; assay: ELISA assay 2, Ab 1:4 of 0.5 µg/ml
[20] = target: Aβ1-42 peptide, oligomer-enriched preparation; assay: ELISA assay 2, Ab 1:4 of 0.5 µg/ml
[21] = target: Aβ1-42 peptide, high molecular weight (HMW) proto-fibrillar (PF) oligomer enriched preparation (human); assay: ELISA on coated fraction, Ab 0.0625 µg/ml
[22] = target: Aβ1-42 peptide, low molecular weight (LMW) monomer preparation (human); assay: ELISA on coated fraction, Ab 0.0625 µg/ml
[23] = target: Aβ1-42 peptide, monomer-enriched preparation; assay: ELISA mean of 3, Ab 1:1 of 0.5 µg/ml
[24] = target: Aβ1-42 peptide, oligomer-enriched preparation; assay: ELISA mean of 3, Ab 1:1 of 0.5 µg/ml
[25] = target: Aβ1-42 peptide, high molecular weight (HMW) proto-fibrillar (PF) oligomer enriched preparation (human); assay: ELISA on coated fraction, Ab 0.0078 µg/ml
[26] = target: Aβ1-42 peptide, low molecular weight (LMW) monomer preparation (human); assay: ELISA on coated fraction, Ab 0.0078 µg/ml
[27] = target: Aβ1-42 peptide, oligomer-enriched preparation; assay: ELISA assay 1, Ab 1:4 of 0.5 µg/ml
[28] = target: Aβ1-42 peptide, high molecular weight (HMW) proto-fibrillar (PF) oligomer enriched preparation (human); assay: ELISA on coated fraction, Ab 0.5 µg/ml
[29] = target: Aβ1-42 peptide, low molecular weight (LMW) monomer preparation (human); assay: ELISA on coated fraction, Ab 0.5 µg/ml
[30] = target: Aβ1-42 peptide, high molecular weight (HMW) proto-fibrillar (PF) oligomer enriched preparation (human); assay: ELISA, Ab 0.0625 µg/ml; proto-fibrils against LMW monomers (given without sign)
[31] = target: Aβ1-42 peptide, monomer-enriched preparation; assay: ELISA assay 1, Ab 1:8 of 0.5 µg/ml
[32] = target: Aβ1-42 peptide, oligomer-enriched preparation; assay: ELISA assay 1, Ab 1:8 of 0.5 µg/ml
[33] = target: Aβ1-42 peptide, monomer-enriched preparation; assay: ELISA assay 3, Ab 1:4 of 0.5 µg/ml
[34] = target: Aβ1-42 peptide, oligomer-enriched preparation; assay: ELISA assay 3, Ab 1:4 of 0.5 µg/ml
[35] = target: Aβ1-42 peptide, high molecular weight (HMW) proto-fibrillar (PF) oligomer enriched preparation (human); assay: ELISA, Ab 0.0313 µg/ml; proto-fibrils against LMW monomers (given without sign)
[36] = target: Aβ1-42 peptide, monomer-enriched preparation; assay: ELISA assay 2, Ab 1:64 of 0.5 µg/ml
[37] = target: Aβ1-42 peptide, oligomer-enriched preparation; assay: ELISA assay 2, Ab 1:64 of 0.5 µg/ml
[38] = target: Aβ1-42 peptide, monomer-enriched preparation; assay: ELISA assay 3, Ab 1:64 of 0.5 µg/ml
[39] = target: Aβ1-42 peptide, oligomer-enriched preparation; assay: ELISA assay 3, Ab 1:64 of 0.5 µg/ml
[40] = target: Aβ1-42 peptide, oligomer-enriched preparation; assay: ELISA assay 3, Ab 1:8 of 0.5 µg/ml

Aβ1-42 peptide, low molecular weight (LMW) monomer preparation (human), sequence (peptide, as listed by the source, form in doubt): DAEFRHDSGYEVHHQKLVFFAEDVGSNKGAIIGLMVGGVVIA
Aβ1-42 peptide, high molecular weight (HMW) proto-fibrillar (PF) oligomer enriched preparation (human), sequence (peptide, as listed by the source, form in doubt): as above
Aβ1-42 peptide, oligomer-enriched preparation, sequence (peptide, as listed by the source, form in doubt): as above
Aβ1-42 peptide, monomer-enriched preparation, sequence (peptide, as listed by the source, form in doubt): as above

In the case of 6E10 control antibody, the O.D. [1] is reported as 2.55 O.D, the O.D. [2] is reported as 2.68 O.D and the O.D. [3] is reported as 1.94 O.D. The O.D. [4] was 1.92 O.D, the O.D. [5] was 0.863 O.D and the O.D. [6] was 0.999 O.D. The O.D. difference [7] was 0.01 O.D, the O.D. [8] was 3.77 O.D and the O.D. [9] was 3.67 O.D. The O.D. [10] was 4 O.D, the O.D. [11] was 3.83 O.D and the O.D. difference [12] was 0.12 O.D. It also gave an O.D. (mean) [13] of 0.75 O.D, an O.D. (mean) [14] of 0.63 O.D and an O.D. (mean) [15] of 0.94 O.D. It also gave an O.D. (mean) [16] of 0.92 O.D, an O.D. (mean) [17] of 3.27 O.D and an O.D. (mean) [18] of 3.37 O.D. It also gave an O.D. [19] of 3.29 O.D, an O.D. [20] of 3.37 O.D and an O.D. [21] of 0.544 O.D. It also gave an O.D. [22] of 0.574 O.D, an O.D. (mean) [23] of 3.83 O.D and an O.D. (mean) [24] of 3.64 O.D. The O.D. [25] was 0.116 O.D, the O.D. [26] was 0.133 O.D and the O.D. [27] was 3.1 O.D. It also gave an O.D. [28] of 2 O.D, an O.D. [29] of 2.13 O.D and an O.D. difference [30] of 0.03 O.D. It also gave an O.D. [31] of 2.67 O.D, an O.D. [32] of 2.73 O.D and an O.D. [33] of 3.52 O.D. It also gave an O.D. [34] of 3.64 O.D, an O.D. difference [35] of 0.04 O.D and an O.D. [36] of 0.94 O.D. The O.D. [37] was 0.88 O.D, the O.D. [38] was 1.08 O.D and the O.D. [39] was 0.95 O.D. The O.D. [40] was 3.23 O.D.
